# Test results published in article PMC8092134, “Cryptic β-Lactamase Evolution Is Driven by Low β-Lactam Concentrations” (mSphere, 2021).
# Target: the molecule itself
# Test: crystal structure; hanging drop, 5 mg/ml enzyme, 0.1 M Tris pH 9.0, 28 to 30% PEG mono ethylene ether 500, 4°C; soaked with ceftazidime; space group P2(1)2(1)2(1), four chains in the asymmetric unit
protein,measurement,value
"OXA-48 variant L67F (enzyme, carboxylated lysine at K73, point mutation L67F made by site-directed mutagenesis; Crystals were soaked with ceftazidime; chains C and D carry a hydrolysed ceftazidime molecule; also called OXA-48 L67F; source: E. coli BL21 AI (pDEST17), purified) KEWQENKSWNAHFTEHKSQGVVVLWNENKQQGFTNNLKRANQAFFPASTFKIPNSLIALDLGVVKDEHQVFKWDGQTRDIATWNRDHNLITAMKYSVVPVYQEFARQIGEARMSKMLHAFDYGNEDISGNVDSFWLDGGIRISATEQISFLRKLYHNKLHVSERSQRIVKQAMLTEANGDYIIRAKTGYSTRIEPKIGWWVGWVELDDNVWFFAMNMDMPTSDGLGLRQAITKEVLKQEKIIP",stoichiometry N,2
